Reference: paper PMC13456277, “Direct interaction between RSV polymerase L and active Rab11a mediates viral ribonucleoprotein transport to assembly sites” (PLOS Pathogens, 2026)
Substitutions are numbered along the chain they refer to. Numbers in names are those of the source.

B1: GST-Rab11a(Q70L) CA (natural protein)
chain: MGTRDDEYDYLFKVVLIGDSGVGKSNLLSRFTRNEFNLESKSTIGVEFATRSIQVDGKTIKAQIWDTAGLERYRAITSAYYRGAVGALLVYDIAKHLTYENVERWLKELRDHADSNIVIMLVGNKSDLRHLRAVPTDEARAFAEKNGLSFIETSALDSTNVEAAFQTILTEIYRIVSQKQMSDRRENDMSPSNNVVPIHVPPTTENKPKVQCCQNI
B2: GST-Rab11a WT (natural protein, human, UniProt P62491 1-216, looked up)
chain: B1 chain with L70Q
notes: human Rab11a; pGEX 4T-3; Used with or without 1 mM GTP; also called GST-Rab11a wild-type; source: E. coli BL21, purified (Glutathione Sepharose 4B, SEC Superdex 200); not shown: GST, N-terminal, kept

What was measured:
[1] = biological target: RSV L-Twin-Strep-tag + P-his (human respiratory syncytial virus, UniProt P28887 1-2165; P03421 1-241); assay: BLI
[2] = biological target: T1, RSV L-Twin-Strep-tag + P-his (human respiratory syncytial virus, UniProt P28887 1-2165; P03421 1-241); assay: BLI; Octet RED 384, 25°C; L-Twin-Strep-tag + P-his loaded on Ni-NTA sensors; two-fold dilutions of GST-Rab11a (with 1 mM GTP) or GST-Rab11a CA from 50 nM to 3.2 µM; association 60 min to steady state, dissociation 5 min; apparent KD from steady-state responses, one-site model, double referenced; conditions: both partners purified
T1 construct: RSV large polymerase L, codon-optimized; RSV phosphoprotein P, codon-optimized; L as in m21; also called L-P^-his; L-P complexes; source: Sf9, baculovirus, purified (Strep-Trap XT, SEC Superose 6); not shown: Twin-Strep-tag, C-terminal, kept; His6, C-terminal, kept

| Binder | Kd [1] [nM] | Kd [2] [nM] |
| --- | --- | --- |
| B1 | 1200 | – |
| B2 | – | 300 |
